In one experiment the target is MARV GPddmuc (Marburg virus (MARV), UniProt P35253 19-648). Put plainly: native ELISA.
Another experiment concerns the target EBOV GPddmuc (Ebola virus (EBOV), UniProt Q05320 33-650). Put plainly: ELISA. For orientation: An ELISA detects its analyte on a solid surface through an enzyme-linked reagent.
A further experiment concerns the target SUDV GPddmuc (Sudan virus (SUDV), UniProt Q66814 33-650). Put plainly: ELISA.

B1: FVM13 (antibody, V domains shown)
VH: EVQLVQSGAEVKRPGESLKISCKTSGYTFTSSWISWVRQMPGKGLEWLGSIYPGDSDTRYNPSFQGHVTISADTSIITTHLQWSSLKASDTATYYCVKGSETWGQGVLVTVSS
VL: KPMLTQPTSLSASPGASASLTCTFSGGINVAGYNILWYQQKAGSPPRYLLRYKSDSTKDQGSGVPSRFSGSKDASANTGILRISGLQSEDEADYYCAIGHSSGWIFGGGTRLTVL
A word on the EC50: it is the concentration needed to bring the measured effect to its halfway point. Low values mean a more potent agent, high ones a less potent agent. As to B1, in the experiment with MARV GPddmuc, the binding result is “no binding”. In addition, the EC50 with EBOV GPddmuc is 0.062 nM; with SUDV GPddmuc, 0.051 nM.

B2: FVM21 (antibody, V domains shown)
VH: EVQLVESGAEVKRPGESLTISCKTSGYSFTDSWVAWVRQMPGKGLEWLGSIYPGDSETKYNPSFQGHVTISADKSISTTYLQWSSLRASDTATYYCVKGADDWGPGLLVTVSS
VL: SSELTQPASLSASPGASASLTCTFSGGINVAGYNILWYQQKAGSPPRYLLRYKSDSDKGQGSGVPSRFSGSKDASANTGILRISGLQSEDEADYYCAIGHSSGWIFGGGTRLTVL
Take B2: the binding result with MARV GPddmuc is listed as “no binding”. Moreover, the EC50 with EBOV GPddmuc and with SUDV GPddmuc was 0.067 nM each time.

B3: FVM19 (antibody, V domains shown)
VH: QVQLVQSGAEVKRPGESLTISCKTSGYSFTDSWVAWVRQMPGKGLEWLGSIYPGDSDTKYNPSFQGHVTISADKSVTTTYLKWSSLKASDTATYYCVKGSETWGQGVLVTVSS
VL: KPMLTQPASLSASPGASASLTCTFSGGINVAGYHIFWYQQKPGSPPRYLLRYKSDSDKGQGSGVPSRFSGSKDASANTGILRISGLQSEDEADYYCAIGHSSGLLFGGGTRLTVL
For B3, the binding result in the experiment with MARV GPddmuc is “no binding”. In addition, the 50% effective concentration (EC50) with EBOV GPddmuc came out at 0.12 nM; in the experiment with SUDV GPddmuc, 0.267 nM.

B4: FVM23 (antibody, V domains shown)
VH: QVQLVQSGAEVKRPGESLTISCKTSGYSFTGSWISWVRQMPGKGLEWMGSIYPGDSDTTYNPSFQGHVTISADKSISTAYLQWTSLKASDTATYYCVKGSETWGQGVLVTVSS
VL: SYELTQPASLSASPGASASLTCTFSGGINVAGYNILWYQQKAGSPPRYLLRYKSDSTKDQGSGVPSRFSGSKDASANTGILRISGLQSEDEADYYCAIGHSSGLIFGAGTRLTVL
For B4, the binding result with MARV GPddmuc was “no binding”. For the same molecule, the figures for the EC50 in the experiment with EBOV GPddmuc and with SUDV GPddmuc were 0.087 nM and 0.08 nM, respectively.

B5: FVM24 (antibody, V domains shown)
VH: EVQLVQSGAEVKRPGESLKISCKTSGYSFTDSWVAWVRQMPGKGLEWMGSIYPGDFQTRYNPSFQGHVTLSADKSISTTYLQWSSLKASDTATYYCVKGSETWGPGVLVTVSS
VL: SSGLTQPASLSASPGASASLTCTFSGGINVAGYNILWYQQKAGSPPRYLLRYKSDSTKDQGSGVPSRFSGSKDVSANTGILRISGLQSDDEADYYCAIGHSSGWIFGGGTRLTVL
Turning to B5, the binding result with MARV GPddmuc is “no binding”. Moreover, the 50% effective concentration (EC50) with EBOV GPddmuc was determined as 0.153 nM; in the experiment with SUDV GPddmuc, 0.12 nM.

B6: FVM25 (antibody, V domains shown)
VH: EVQLVHSGAEVKRPGESLTISCKTSGYTFTDYWIAWVRQMPGKGLEWMASIYPDDSDTRYNPSFQGHVTISADKSISTTYLQWSSLRASDTATYYCVKGSETWGQGVLVTVSS
VL: QLVLTQPASLSASPGTSASLTCTFSGGINVAGYNILWYQQKPGSPPRFLLRYKSDSDNVQGSGVPSHFSGSKDASTNTGILRISGLQSEDEADYYCAIGHSSGWVFGGGTRLTVL
For the molecule B6, the binding result with MARV GPddmuc was “no binding”. The figures for the EC50 with EBOV GPddmuc and with SUDV GPddmuc were 0.12 nM and 0.18 nM, respectively.

B7: FVM18 (antibody, V domains shown)
VH: QVQLVQSGAEVKRPGESLKISCKTSGYSFTNIWISWVRQMPGKGLEWLGSIYPGDSETKYNPSFQGHVTISADKSVTTTYLKWSSLKASDTATYYCVKGSETWGQGVLVTVSS
VL: NFMLTQPASLSASPGASASLTCTFSGGINVAGYHILWYQQKPGSPPRYLLRYKSDSEKDQGSGVPSRFSGSKDASANRGILRISGLQSEDEADYYCAIGHSSSGWVFGGGTRLTVL
In the case of B7, the binding result with MARV GPddmuc is “no binding”. Further, the concentration for a half-maximal effect (EC50) amounted to 0.101 nM with EBOV GPddmuc and 0.108 nM with SUDV GPddmuc.
